Assay results published in article PMC6150732.

Molecular target: encapsulin from Brevibacterium linens (Brevibacterium linens)
Assay: cryo-EM structure

Substance	stoichiometry N (DyP hexamer per encapsulin particle)	stoichiometry N (subunits per particle)
dye-decolorizing peroxidase (DyP) from Brevibacterium linens (enzyme)	1	
encapsulin from Brevibacterium linens (natural protein)		60
